We go through two proteins from PMC4465122 (EBioMedicine, 2015).

The data set deals with the molecule itself. The data set can be described thus: cross-linking.

B1: recombinant human prolidase (rhPEPD) (enzyme)
chain: MAAATGPSFWLGNETLKVPLALFALNRQRLCERLRKNPAVQAGSIVVLQGGEETQRYCTDTGVLFRQESFFHWAFGVTEPGCYGVIDVDTGKSTLFVPRLPASHATWMGKIHSKEHFKEKYAVDDVQYVDEIASVLTSQKPSVLLTLRGVNTDSGSVCREASFDGISKFEVNNTILHPEIVECRVFKTDMELEVLRYTNKISSEAHREVMKAVKVGMKEYELESLFEHYCYSRGGMRHSSYTCICGSGENSAVLHYGHAGAPNDRTIQNGDMCLFDMGGEYYCFASDITCSFPANGKFTADQKAVYEAVLRSSRAVMGAMKPGVWWPDMHRLADRIHLEELAHMGILSGSVDAMVQAHLGAVFMPHGLGHFLGIDVHDVGGYPEGVERIDEPGLRSLRTARHLQPGMVLTVEPGIYFIDHLLDEALADPARASFLNREVLQRFRGFGGVRIEEDVVVTDSGIELLTCVPRTVEEIEACMAGCDKAFTPFSGPK
Turning to B1, the stoichiometry N (as a rule, a count of units in the complex or per binding partner) was 2.

B2: rhPEPD^G278D, enzymatically inactive mutant of recombinant human prolidase (enzyme)
chain: MAAATGPSFWLGNETLKVPLALFALNRQRLCERLRKNPAVQAGSIVVLQGGEETQRYCTDTGVLFRQESFFHWAFGVTEPGCYGVIDVDTGKSTLFVPRLPASHATWMGKIHSKEHFKEKYAVDDVQYVDEIASVLTSQKPSVLLTLRGVNTDSGSVCREASFDGISKFEVNNTILHPEIVECRVFKTDMELEVLRYTNKISSEAHREVMKAVKVGMKEYELESLFEHYCYSRGGMRHSSYTCICGSGENSAVLHYGHAGAPNDRTIQNGDMCLFDMDGEYYCFASDITCSFPANGKFTADQKAVYEAVLRSSRAVMGAMKPGVWWPDMHRLADRIHLEELAHMGILSGSVDAMVQAHLGAVFMPHGLGHFLGIDVHDVGGYPEGVERIDEPGLRSLRTARHLQPGMVLTVEPGIYFIDHLLDEALADPARASFLNREVLQRFRGFGGVRIEEDVVVTDSGIELLTCVPRTVEEIEACMAGCDKAFTPFSGPK
For the protein B2, the “stoichiometry N” value came out at 2.
